Source: publication PMC6913698

T1: His-TF-TaGATA1 (Triticum aestivum (line CI12633), UniProt A0A5K7NI72 1-181)
T1 sequence: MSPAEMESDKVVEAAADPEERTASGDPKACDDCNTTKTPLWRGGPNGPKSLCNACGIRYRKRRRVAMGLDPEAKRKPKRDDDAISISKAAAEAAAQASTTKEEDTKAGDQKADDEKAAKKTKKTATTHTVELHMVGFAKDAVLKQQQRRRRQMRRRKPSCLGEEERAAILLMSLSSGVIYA

B1: GATA-containing probe (dsDNA)
DNA 1: AGTCGACGTGGATAATGGATCCTCGAGTGGATAATTCGATC
DNA 2: GATCGAATTATCCACTCGAGGATCCATTATCCACGTCGACT
B2: unlabelled GATA-containing competitor (dsDNA)
DNA 1: AGTCGACGTGGATAATGGATCCTCGAGTGGATAATTCGATC
DNA 2: GATCGAATTATCCACTCGAGGATCCATTATCCACGTCGACT

Tests used:
His-TF-TaGATA1 [1] = biological target: T1, His-TF-TaGATA1; test: EMSA
His-TF-TaGATA1 [2] = biological target: T1, His-TF-TaGATA1; test: competition

Binder | binding result (His-TF-TaGATA1 [1]) | binding result (His-TF-TaGATA1 [2])
B1 | binds | 
B2 |  | binds
